Reference: US20230227514A1, “BETA-ARRESTIN COMPOSITIONS AND ASSOCIATED METHODS” (Duke University, priority 2020, published 2023)

Assays:
Type in all cases: cell-based
[1] = biological target: T1, D1 dopamine receptor (D1R) (Homo sapiens, UniProt P21728); experiment: Confocal trafficking and colocalization with D1R; conditions: HEK-293 cells with stable D1R expression; dopamine 15 minutes
T1 construct: expressed in transfected cells
Method: (§1) Immunostaining and confocal microscopy. […] Twenty-four hours post-transfection, cells were serum-starved for 4 h, and either left untreated or treated with respective agonists for the indicated times in the Figure descriptions. After stimulation, cells were fixed with 5% formaldehyde diluted in phosphate-buffered saline (PBS), permeabilized with 0.1% Triton in PBS containing 2% bovine serum albumin for 20 min and incubated at room temperature with appropriate primary antibody. The next day, cells were washed three times with PBS and incubated with Alexa594 conjugated secondary antibody for 1 h, followed by repeated washes using PBS. Confocal images were acquired using Zeiss LSM510 laser-scanning microscope using multitrack sequential with excitation (488 and 568 nm) and emission (BP 505-550 nm and LP 585 nm) filter sets. Images (1024×1024 pixels) were collected using either a 63× or 100× oil immersion lens. Images were processed for Figure presentation using Adobe Photoshop software, and any increase or decrease of brightness/contrast was applied to the entire image. The nuclear rim localization of YFP-βarrestin2-SUMO1 is readily visualized in cells with low to moderate expression of YFP-protein. In cells with high expression, this localization is present, and can be discerned by enlarging sections of the nuclear rim. […]

RanGAP1 [2] = experiment: Western blotting of RanGAP1 levels on βarrestin2 overexpression; conditions: RanGAP1/GAPDH ratio, Western blot
From the text: HEK-293T cells stably transfected with β2AR were transfected with vector or YFP-βarrestin2. […] The unmodified RanGAP1 band (70 kDa) was divided by cognate GAPDH and plotted as a ratio. The bar graph (bottom panel) summarizes values from three independent experiments. *p=0.006, unpaired t test.
In these experiments, SUMO1 by itself is not localized at the nuclear membrane in HEK-293 cells; only βarrestin2-SUMO1 is localized at the nuclear membrane. […] It is well established that RanGAP1 is expressed in cells predominantly in the SUMOylated state. This is illustrated in immunoblots (FIGS. 9-11), in which the RanGAP1 antibody detects two bands, SUMO-RanGAP1 (approximately 90 kDa) and RanGAP1 (approximately 70 kDa).

D2R = biological target: T2, D2R (Homo sapiens, UniProt P14416); experiment: Confocal trafficking and colocalization with D2R; conditions: HEK-293 cells stably expressing D2R
T2 construct: HA (N); expressed in transfected cells
T2 sequence (P14416 whole entry): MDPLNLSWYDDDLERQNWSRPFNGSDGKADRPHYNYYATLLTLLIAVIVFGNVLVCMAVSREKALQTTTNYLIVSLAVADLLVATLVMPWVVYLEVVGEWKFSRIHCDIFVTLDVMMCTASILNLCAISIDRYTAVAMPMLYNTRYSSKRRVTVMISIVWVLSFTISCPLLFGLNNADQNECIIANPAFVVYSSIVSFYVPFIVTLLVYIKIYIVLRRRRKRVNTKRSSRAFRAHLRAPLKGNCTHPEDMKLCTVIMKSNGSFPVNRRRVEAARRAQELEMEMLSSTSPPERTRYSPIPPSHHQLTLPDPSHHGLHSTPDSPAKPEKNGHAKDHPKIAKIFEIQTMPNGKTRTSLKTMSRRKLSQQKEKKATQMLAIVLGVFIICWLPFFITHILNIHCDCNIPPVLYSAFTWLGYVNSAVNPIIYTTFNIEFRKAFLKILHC
Method: as §1

β2AR [3] = biological target: T3, β2AR (Homo sapiens, UniProt P07550); experiment: Confocal trafficking and colocalization with β2AR
T3 construct: Flag (N); expressed in transfected cells
Method: Immunostaining and confocal microscopy. […] Twenty-four hours post-transfection, cells were serum-starved for 4 h, and either left untreated or treated with respective agonists for the indicated times in the Figure descriptions. After stimulation, cells were fixed with 5% formaldehyde diluted in phosphate-buffered saline (PBS), permeabilized with 0.1% Triton in PBS containing 2% bovine serum albumin for 20 min and incubated at room temperature with appropriate primary antibody. The next day, cells were washed three times with PBS and incubated with Alexa594 conjugated secondary antibody for 1 h, followed by repeated washes using PBS. Confocal images were acquired using Zeiss LSM510 laser-scanning microscope using multitrack sequential with excitation (488 and 568 nm) and emission (BP 505-550 nm and LP 585 nm) filter sets. Images (1024×1024 pixels) were collected using either a 63× or 100× oil immersion lens. Images were processed for Figure presentation using Adobe Photoshop software, and any increase or decrease of brightness/contrast was applied to the entire image. The nuclear rim localization of YFP-βarrestin2-SUMO1 is readily visualized in cells with low to moderate expression of YFP-protein. In cells with high expression, this localization is present, and can be discerned by enlarging sections of the nuclear rim.
For βarrestin2-SUMO1, plasma membrane translocation was detected upon β2AR agonist activation, and, intriguingly, βarrestin2-SUMO1 was detected in endocytic vesicles. […] Confocal images were taken of cells stably expressing the β2AR and transiently expressing YFP-SUMO1 (data not shown). In both quiescent and agonist-treated cells, the SUMO1 protein remained in the nucleus. […] See Shenoy et al. 2007, supra; Shenoy and Lefkowitz. 2005. J Biol Chem 280:15315-15324; and Shenoy and Lefkowitz. 2003. J Biol Chem 278:14498-14506. Therefore, the endosomal trafficking was compared for βarrestin2-ubiquitin (βarrestin2-Ub) fusion protein and internalized β2ARs. […]

RanGAP1 [4] = biological target: T4, RanGAP1 (Homo sapiens, UniProt P46060); experiment: Confocal colocalization with endogenous RanGAP1 at the nuclear envelope; conditions: HEK-293 cells with or without β2AR agonist stimulation
T4 construct: endogenous in cells; host or cells: HEK-293T / HEK-293
T4 sequence (P46060 2-587 limits assumed): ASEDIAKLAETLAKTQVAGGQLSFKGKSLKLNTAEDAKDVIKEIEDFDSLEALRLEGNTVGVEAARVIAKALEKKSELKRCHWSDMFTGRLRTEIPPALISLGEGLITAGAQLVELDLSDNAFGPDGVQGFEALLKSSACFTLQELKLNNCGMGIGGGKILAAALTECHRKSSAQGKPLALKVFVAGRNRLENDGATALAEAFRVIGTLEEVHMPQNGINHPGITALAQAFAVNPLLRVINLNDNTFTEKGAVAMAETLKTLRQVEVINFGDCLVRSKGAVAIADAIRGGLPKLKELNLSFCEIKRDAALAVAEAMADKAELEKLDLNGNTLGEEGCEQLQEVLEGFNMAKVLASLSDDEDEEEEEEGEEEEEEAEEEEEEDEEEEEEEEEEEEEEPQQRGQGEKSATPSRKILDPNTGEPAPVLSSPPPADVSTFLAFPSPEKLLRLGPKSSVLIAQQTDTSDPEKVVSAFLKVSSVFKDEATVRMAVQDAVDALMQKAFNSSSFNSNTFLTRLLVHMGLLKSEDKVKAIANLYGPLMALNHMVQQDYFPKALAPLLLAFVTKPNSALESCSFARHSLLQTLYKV
T4 sequence (P63165 2-97 partner limits assumed): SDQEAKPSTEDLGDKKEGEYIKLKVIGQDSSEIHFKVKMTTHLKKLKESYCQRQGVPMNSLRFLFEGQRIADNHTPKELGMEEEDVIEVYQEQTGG
Method: as §1

glucagon receptor (GCGR) = biological target: T5, glucagon receptor (GCGR) (Homo sapiens, UniProt P47871); experiment: BRET assay of βarrestin1 construct recruitment to GCGR; conditions: GCGR activation with glucagon
T5 construct: expressed in transfected cells; host or cells: HEK-293T
T5 sequence (P47871 26-477, species assumed): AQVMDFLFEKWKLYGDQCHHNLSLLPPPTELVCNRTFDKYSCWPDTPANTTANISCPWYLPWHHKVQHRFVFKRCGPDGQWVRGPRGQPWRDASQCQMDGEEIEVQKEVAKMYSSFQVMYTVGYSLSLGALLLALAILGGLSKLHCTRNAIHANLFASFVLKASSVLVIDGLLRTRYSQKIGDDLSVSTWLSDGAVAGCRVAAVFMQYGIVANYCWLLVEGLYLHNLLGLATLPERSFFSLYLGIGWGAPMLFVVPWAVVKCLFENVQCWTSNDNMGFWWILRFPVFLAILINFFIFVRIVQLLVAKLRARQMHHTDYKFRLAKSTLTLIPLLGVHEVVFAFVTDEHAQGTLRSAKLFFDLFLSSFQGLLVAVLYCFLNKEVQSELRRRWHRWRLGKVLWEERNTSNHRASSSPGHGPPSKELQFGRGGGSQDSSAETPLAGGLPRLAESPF
From the text: The bar graph summarizes the BRET ratio corresponding to the recruitment of βarrestin1 or βarrestin1-SUMO1 fusion protein to the GCGR with or without glucagon (GCGR agonist) stimulation, as described in Example 1 herein.
(§2) BRET assays. […] Titration assays were first completed, which allowed determination of the specificity of association among different interaction partners. See Nagi and Shenoy. 2019, supra; Gales et al. 2005. Nature methods 2:177-184; Nagi et al. 2015. Cellular and molecular life sciences: CMLS 72:3543-3557; Audet and Pineyro. 2011. Methods in molecular biology 756:149-163; and Rebois et al. 2006. Journal of cell science 119:2807-2818. […] BRET readings were acquired using Synergy Neo2 plate reader and obtained 5 min after manual addition of Rluc substrate, coelenterazine h (Promega) to a final concentration of 5 μM.
(§3) The BRET signal generated was determined by calculating the ratio of light emitted by YFP (520-550 nm) over the light emitted by Rluc (440-480 nm). These values were then corrected by subtracting the background signal (detected when the Rluc-tagged construct was expressed without acceptor) from the BRET signal detected in cells co-expressing both donor and acceptor constructs. Agonist-induced BRET values were calculated by subtracting net BRET values of non-stimulated conditions from net BRET values corresponding to the stimulated conditions.

β2AR [5] = biological target: T3, β2AR; experiment: BRET assay of βarrestin1 construct recruitment to β2AR; conditions: with or without isoproterenol stimulation
From the text: The bar graph summarizes the BRET ratio corresponding to the recruitment of βarrestin1 or βarrestin1-SUMO1 fusion protein to the β2AR with or without isoproterenol (β2AR agonist) stimulation, as described in Example 1 herein.
as §2, §3

SUMO1 = biological target: T6, SUMO1 (Homo sapiens, UniProt P63165); experiment: SUMOylation of FLAG-βarrestin2 constructs co-expressed with His6-SUMO1 (FLAG IP, immunoblot); conditions: overexpressed in HEK-293 cells along with His-SUMO1
T6 construct: His6 (N); expressed in transfected cells; host or cells: HEK-293 (transient)
T6 sequence (P63165 1-97 limits assumed): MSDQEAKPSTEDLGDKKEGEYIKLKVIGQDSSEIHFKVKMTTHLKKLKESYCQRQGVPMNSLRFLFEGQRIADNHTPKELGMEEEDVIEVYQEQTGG
From the text: HEK-293 cells were transfected with vector, FLAG-βarrestin2 (WT) or FLAG-βarrestin2-K296R along with His6-SUMO1.
SUMOylation is targeted to a canonical protein sequence (Ψ-K-X-D/E), where Ψ is an aliphatic amino acid, K is the target site for the covalent modification by SUMO, X is any amino acid and is followed by an acidic residue. See Sampson et al. 2001. J Biol Chem 276:21664-21669. […] See Wyatt et al. 2011 and Xiao et al. 2015, both supra.

T1 sequence (P21728 whole entry): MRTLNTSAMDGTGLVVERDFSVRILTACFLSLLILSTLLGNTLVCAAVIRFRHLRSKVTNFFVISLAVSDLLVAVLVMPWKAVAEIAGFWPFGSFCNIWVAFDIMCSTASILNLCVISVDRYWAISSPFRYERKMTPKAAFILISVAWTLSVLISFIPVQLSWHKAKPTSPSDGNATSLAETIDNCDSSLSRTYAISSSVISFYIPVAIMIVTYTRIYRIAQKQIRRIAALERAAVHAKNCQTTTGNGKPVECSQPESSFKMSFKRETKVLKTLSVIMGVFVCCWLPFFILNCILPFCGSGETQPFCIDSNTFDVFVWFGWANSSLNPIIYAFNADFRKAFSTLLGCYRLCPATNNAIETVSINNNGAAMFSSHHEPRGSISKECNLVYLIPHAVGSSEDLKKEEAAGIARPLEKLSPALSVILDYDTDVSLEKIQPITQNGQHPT

Molecule: βarrestin2: wild-type rat βarrestin2 (SEQ ID NO:3), tagged, used as comparator [reference compound]
- association with D1R after dopamine activation (confocal) [1]: weak association
- increase of unmodified RanGAP1 band (approximately 70 kDa) versus vector transfected cells (RanGAP1 [2]): 50%
- stability of association with activated D2R (confocal) (D2R): not stable
- colocalization / complexes with β2AR after agonist activation (confocal) (β2AR [3]; HEK-293 cells with stable β2AR expression, agonist up to 20 minutes): no colocalization was detected
- colocalization with endogenous RanGAP1 at the nuclear envelope (RanGAP1 [4]): Minimal colocalization

Molecule: βarrestin1: wild-type rat βarrestin1 (SEQ ID NO:4), used as comparator [reference compound]
- association with GCGR by BRET (glucagon receptor (GCGR)): weak association
- association with β2AR by BRET ratio (β2AR [5]): weak association

Molecule: βarrestin1-SUMO1: rat βarrestin1 polypeptide fused to human SUMO1 (SEQ ID NO:2)
- colocalization of βarrestin1 constructs with β2AR (confocal) (β2AR [3]; HEK-293 cells, isoproterenol): strong colocalization
- association with GCGR by BRET (glucagon receptor (GCGR)): significantly more binding
- association with β2AR by BRET ratio (β2AR [5]): significantly more binding

B1: βarrestin2-K296R: rat βarrestin2 with lysine-296 of the canonical SUMOylation site mutated to arginine (protein)
chain: MGEKPGTRVFKKSSPNCKLTVYLGKRDFVDHLDKVDPVDGVVLVDPDYLKDRKVFVTLTCAFRYGREDLDVLGLSFRKDLFIATYQAFPPMPNPPRPPTRLQDRLLKKLGQHAHPFFFTIPQNLPCSVTLQPGPEDTGKACGVDFEIRAFCAKSIEEKSHKRNSVRLIIRKVQFAPETPGPQPSAETTRHFLMSDRRSLHLEASLDKELYYHGEPLNVNVHVTNNSAKTVKKIRVSVRQYADICLFSTAQYKCPVAQLEQDDQVSPSSTFCKVYTITPLLSDNREKRGLALDGQLRHEDTNLASSTIVKEGANKEVLGILVSYRVKVKLVVSRGGDVSVELPFVLMHPKPHDHITLPRPQSAPREIDIPVDTNLIEFDTNYATDDDIVFEDFARLRLKGMKDDDCDDQFC
modifications: left off: large carriers
- SUMOylation compared with rat βarrestin2 (WT) (SUMO1): significantly decreased but not eliminated
